Here are results for 21 substances from patent US20050008615A1.

The target in assay [1] is human IL-18 binding protein (human) (UniProt O95998). Kind of assay: IGEN electrochemiluminescence immunoassay of the IL-18:IL-18BP complex; 125 ng/ml of each.
The target is the same in assay [2]. Kind of assay: SPR (BIAcore). For orientation: In SPR one partner is held on a chip, and binding of the other changes the refractive index at the surface.
Assay [3] shares this target. Kind of assay: IGEN electrochemiluminescence immunoassay of the IL-18:IL-18BP complex (ruthenium 16D10 anti-IL-18 mAb, biotinylated mAb 36 anti-IL-18BP); 125 ng/ml of each.

native human IL-18 (SEQ ID NO:1), sequence (Q14116 37-193): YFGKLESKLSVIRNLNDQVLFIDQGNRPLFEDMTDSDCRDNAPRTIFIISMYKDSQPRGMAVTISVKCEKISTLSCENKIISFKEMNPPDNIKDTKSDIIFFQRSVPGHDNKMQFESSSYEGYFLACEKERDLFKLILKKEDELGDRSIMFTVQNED

The substance “C144 20K PEG (human IL-18 L144C substitution mutant pegylated at C144 with 20K PEG, Table 7) (ligand)” gave an ECL units in assay [1] of 154000 ECL units.
In the case of “C144 non-PEG (human IL-18 substitution mutant with L144C, Table 7) (ligand)”, the ECL units in assay [1] turned out to be 561000 ECL units.
Take “C157 20K PEG (human IL-18 D157C substitution mutant pegylated at C157 with 20K PEG, Table 7) (ligand)”: the ECL units in assay [1] stood at 63500 ECL units.
On the same count and under the same terms, the value for “C157 non-PEG (human IL-18 substitution mutant with D157C, Table 7) (ligand)” was 377000 ECL units; that for “human IL-18 C38S (SEQ ID NO:4) (from UniProt Q14116 37-193) (ligand)” was 746000 ECL units.
“human IL-18 C38S (SEQ ID NO:4) monopegylated at C68 with 20K PEG (from UniProt Q14116 37-193) (ligand)” registered an ECL units in assay [1] of 49100 ECL units.
Regarding “human IL-18 C38S, C68D, D157C (SEQ ID NO:8) (from UniProt Q14116 37-192) (ligand)”, the Kd – broadly, the concentration at which binding is half-saturated – in assay [2] worked out at 0.134 nM.
Same read-out and setting: the value for “human IL-18 C38S, C68D, D157C (SEQ ID NO:8) monopegylated at C157 with 20K PEG (from UniProt Q14116 37-192) (ligand)” was 5.53 nM.
For “human IL-18 C38S, C68D, D157C (SEQ ID NO:8) monopegylated at C157 with 30K PEG (from UniProt Q14116 37-192) (ligand)”, the Kd in assay [2] was found to be 4.91 nM.
Turning to “human IL-18 C38S, C68D, D157C (SEQ ID NO:8) monopegylated at C157 with 40K PEG (from UniProt Q14116 37-192) (ligand)”, the Kd in assay [2] was 23.6 nM.
Same read-out and setting: the value for “human IL-18 C38S, C68D, L144C (SEQ ID NO:7) (from UniProt Q14116 37-193) (ligand)” was 0.101 nM.
Same read-out and setting: the figure for “human IL-18 C38S, C68D, L144C (SEQ ID NO:7) monopegylated at C144 with 20K PEG (from UniProt Q14116 37-193) (ligand)” is 1.16 nM; for “human IL-18 C38S, C68D, L144C (SEQ ID NO:7) monopegylated at C144 with 30K PEG (from UniProt Q14116 37-193) (ligand)” it is 1.51 nM.
In turn, “human IL-18 C38S, C68D, L144C (SEQ ID NO:7) monopegylated at C144 with 40K PEG (from UniProt Q14116 37-193) (ligand)” gave a Kd in assay [2] of 4.71 nM.
On the same count and under the same terms, the value for “human IL-18 C38S, C68S, D157C (SEQ ID NO:10) (from UniProt Q14116 37-192) (ligand)” was 0.163 nM.
Still for that read-out and setting: the figure for “human IL-18 C38S, C68S, D157C (SEQ ID NO:10) monopegylated at C157 with 20K PEG (from UniProt Q14116 37-192) (ligand)” is 1.27 nM; for “human IL-18 C38S, C68S, D157C (SEQ ID NO:10) monopegylated at C157 with 30K PEG (from UniProt Q14116 37-192) (ligand)” it is 1.29 nM.
Same read-out and setting: the figure for “human IL-18 C38S, C68S, L144C (SEQ ID NO:9) (from UniProt Q14116 37-193) (ligand)” is 0.156 nM; for “human IL-18 C38S, C68S, L144C (SEQ ID NO:9) monopegylated at C144 with 20K PEG (from UniProt Q14116 37-193) (ligand)” it is 1.56 nM.
Take “human IL-18 C38S, C68S, L144C (SEQ ID NO:9) monopegylated at C144 with 30K PEG (from UniProt Q14116 37-193) (ligand)”: in assay [2], the dissociation constant (Kd) was determined as 1.51 nM.
In assay [3], “native human IL-18 (SEQ ID NO:1) (from UniProt Q14116 37-193) (ligand)” came in with an ECL units of 1.1e+06 ECL units. In assay [2], this substance had an equilibrium dissociation constant (Kd) of 0.135 nM.
